Ends that are not written are not given here. dimethyl = dimethyl-lysine
Target: T1, 53BP1 tandem Tudor domain (residues 1459-1634) (human, UniProt Q12888 1459-1634)
T1 chain: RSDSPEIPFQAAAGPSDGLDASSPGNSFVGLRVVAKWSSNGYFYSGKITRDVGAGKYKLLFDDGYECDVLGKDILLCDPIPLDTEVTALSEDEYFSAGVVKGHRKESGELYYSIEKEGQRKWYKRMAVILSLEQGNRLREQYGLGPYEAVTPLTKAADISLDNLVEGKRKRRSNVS
Assay: ITC

KGGAKRHRK(dimethyl)VLRDN [H4K20me2 peptide (residues 12-25)]
Kd: 19.8 µM
